In article PMC3369541 (Methods in Molecular Biology (Clifton, N.j.), 2012):

Molecular target: T1, FUS1 peptide (wild-type PDZ protein-binding motif)
T1 peptide: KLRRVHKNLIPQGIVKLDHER
Assay: ProteinChip array with SELDI-TOF mass spectrometry

LGILYILQTLE [Apaf1 peptide (PDZ protein-binding motif)]
binding result: binds
